Measured values from patent US20210308188A1, “CELL CLUSTER INCLUDING OLFACTORY NEURON OR PRECURSOR CELL THEREOF, AND METHOD FOR PRODUCING SAME” (SUMITOMO CHEMICAL COMPANY, LIMITED, priority 2018, published 2021).

Columns and labels:
[1] = test system: human iPS cells; test: Study for time to add BMP signaling pathway-activating substance in cell cluster production (Experiment 11); assay type: cell-based; details: observed day 13
Protocol: In Experiment 11, study of cell cluster production efficiency was performed for time to add the BMP signaling pathway-activating substance, that is, the start time of step (2), by changing the time to add the BMP signaling pathway-activating substance from day 1 to day 6 after the start of suspension culturing, using human iPS cells. The experiments were performed in accordance with the procedures shown in the upper section of FIG. 25, and the same experimental manipulations as in Experiment 3 were performed except for those specifically indicated.
Maintenance-cultured human iPS cells were subjected to step (a), and then the human iPS cells dispersed into single cells were suspended into 100 μl of a serum-free medium in a non-cell-adhesive 96-well three-dimensional culture vessel (PrimeSurface 96 slit-well plate, MS-9096S, manufactured by Sumitomo Bakelite Co., Ltd.) to be 1×10^4 cells per well, and the cells were suspension-cultured under conditions of 37° C., 5% CO2. At the start of suspension culturing (day 0 after the start of suspension culturing, start of step (1)), Y27632 (final concentration 20 μM), IWP-2 (final concentration 2 μM) and SB-431542 (final concentration 1 μM) were added to the serum-free medium.
On any of days 1, 2, 3, 4, and 6 after the start of suspension culturing, a serum-free medium being free of Y27632 and containing IWP-2, SB-431542 and BMP4 was added at 100 μl per well (start of step (2)). BMP4 was added to the medium at 3 nM to be a final concentration in the well of 1.5 nM.
In addition, on day after the addition of a serum-free medium containing BMP4, the medium was half exchanged with a serum-free medium being free of Y27632 and BMP4 and containing SB-431542, K02288, FGF2, Heparin Sodium, and EGF (start of step (3c)). K02288, FGF2, Heparin Sodium, and EGF were added to the medium at 20 μM, 40 ng/ml, 20 μg/ml, and 40 ng/ml, respectively, to be final concentrations in the well were 10 μM, 20 ng/ml, 10 μg/ml, and 20 ng/ml. […]

[2] = test system: human ES cells; test: Study for addition-concentration of BMP signaling pathway-activating substance in cell cluster production (Experiment 7); assay type: cell-based
Protocol: In Experiment 7, a study of cell cluster production efficiency was performed for concentration of the BMP signaling pathway-activating substance in step (2), using human ES cells. The same experimental manipulations as in Experiment 2 (see the upper section of FIG. 8) were performed, and the concentration of BMP4 in the medium in step (2) was set to 7 conditions of 0.025 nM, 0.1 nM, 0.25 nM, 0.5 nM, 1.5 nM, 5 nM, and addition-free control.
On day 28 after the start of suspension culturing, bright-field observation was performed with an inverted microscope.
In addition, evaluation was performed for the cell clusters formed by adding each concentration of BMP4 according to the following four stages: cell cluster in a form close to spherical, whose 80% or more of the entire circumference was covered with non-neural epithelial tissue part (Grade 1, example=FIG. 20A); cell cluster whose 40% to 80% of the entire circumference was covered with non-neural epithelial tissue part or cell cluster in a distorted form (Grade 2, example=FIG. 20B); cell cluster whose ratio of non-neural epithelial tissue parts in the surface of the cell cluster was 40% or less (Grade 3, example=FIG. 20C); and cell cluster in which no non-neural epithelial tissue part was formed (Grade 4, example=FIG. 20D). The evaluation was performed by bright-field observation with an inverted microscope. As a result, non-neural epithelial tissues were not observed under the culture condition without adding of BMP4, as shown in FIG. 20E. Under the culture conditions in which 0.5 nM or more BMP4 was added in step (2), the Grade 1 cell clusters in a form close to a sphere, whose 80% or more of the entire circumference was covered with the non-neural epithelial tissue parts, were formed with high efficiency.

B1: BMP4: BMP signaling pathway-activating substance, manufactured by R&D Systems (protein, UniProt P12644 293-408, looked up)
Bone morphogenetic protein 4: SPKHHSQRARKKNKNCRRHSLYVDFSDVGWNDWIVAPPGYQAFYCHGDCPFPLADHLNSTNHAIVQTLVNSVNSSIPKACCVPTELSAISMLYLDEYDKVVLKNYQEMVVEGCGCR
formation of non-neural epithelial tissue on the surface of the cell aggregate ([1]; BMP4 1.5 nM added on any of days 1, 2, and 3 after start of suspension culturing): a non-neural epithelial tissue was formed on the surface of the cell aggregate | formation of cell aggregates having non-neural epithelial tissues on the surface with larger diameter ([1]; BMP4 1.5 nM added on day 2 after start of suspension culturing): most efficiently and stably formed | formation of non-neural epithelial tissue on the surface of the cell aggregates ([1]; BMP4 1.5 nM added on day 4 or 6 after start of suspension culturing): no formation of non-neural epithelial tissue was observed | quality evaluation grade of cell clusters (circumference covered with non-neural epithelial tissue part) ([2]; 0.5 nM or more BMP4 added in step (2), day 28, formed with high efficiency): Grade 1 (cell cluster in a form close to spherical, whose 80% or more of the entire circumference was covered with non-neural epithelial tissue part) | diameter of spherical cell clusters formed ([2]; all BMP4 concentrations (0.025 to 5 nM) in step (2), day 28 after start of suspension culturing, bright-field observation): around 600 μm | concentration of BMP4 added in step (2) at which Grade 1 cell clusters were formed with high efficiency ([2]; day 28, bright-field observation): ≥ 0.5 nM
